Source: FireProtDB (doi:10.1016/j.jmb.2011.02.053)

Settings: pH 7, Fluorescence, transition: 2, reversible: yes, whole UniProt chain shown; for denaturant midpoint (higher = more stable) / unfolding free energy: 25 °C, Urea
[1] = Borreliella burgdorferi, Sodium phosphate 5mM
[2] = Aspergillus oryzae (strain ATCC 42149 / RIB 40), MOPS 30mM

B1: Variable large protein wild type, O06878 (protein)
chain: MKKISSAILLTTFFVFINCKSQVADKDDPTNKFYQSVIQLGNGFLDVFTSFGGLVAEAFGFKSDPKKSDVKTYFTTVAAKLEKTKTDLNSLPKEKSDISSTTGKPDSTGSVGTAVEGAIKEVSELLDKLVKAVKTAEGASSGTAAIGEVVADADAAKVADKASVKGIAKGIKEIVEAAGGSEKLKAVAAAKGENNKGAGKLFGKAGAAAHGDSEAASKAAGAVSAVSGEQILSAIVTAADAAEQDGKKPEEAKNPIAAAIGDKDGGAEFGQDEMKKDDQIAAAIALRGMAKDGKFAVKDGEKEKAEGAIKGAAESAVRKVLGAITGLIGDAVSSGLRKVGDSVKAASKETPPALNK
[1]
  denaturant midpoint (higher = more stable): 1.19 M
  unfolding free energy: 4.6 kcal/mol

B2: Guanyl-specific ribonuclease T1 wild type, P00651 (protein)
chain: MMYSKLLTLTTLLLPTALALPSLVERACDYTCGSNCYSSSDVSTAQAAGYQLHEDGETVGSNSYPHKYNNYEGFDFSVSSPYYEWPILSSGDVYSGGSPGADRVVFNENNQLAGVITHTGASGNNFVECT
[2]
  denaturant midpoint (higher = more stable): 5.3 M
  unfolding free energy: 6.4 kcal/mol

B3: Guanyl-specific ribonuclease Sa wild type, P05798 (protein)
chain: DVSGTVCLSALPPEATDTLNLIASDGPFPYSQDGVVFQNRESVLPTQSYGYYHEYTVITPGARTRGTRRIITGEATQEDYYTGDHYATFSLIDQTC
Kitasatospora aureofaciens, Thermal, MOPS 30mM
  unfolding enthalpy (calorimetric): 92 kcal/mol
